# Key:
# [1] = target: T1, CutR (Mycobacterium sp. strain JC1) (UniProt D5G1X9); experiment: EMSA; settings: 50 mM Tris-HCl pH 8.0, 100 mM NaCl, 40% glycerol, 5 mM DTT, 2 mM EDTA, 4 °C 1 h; 10% native PAGE in 0.5x TBE at 4 °C
# T1 sequence: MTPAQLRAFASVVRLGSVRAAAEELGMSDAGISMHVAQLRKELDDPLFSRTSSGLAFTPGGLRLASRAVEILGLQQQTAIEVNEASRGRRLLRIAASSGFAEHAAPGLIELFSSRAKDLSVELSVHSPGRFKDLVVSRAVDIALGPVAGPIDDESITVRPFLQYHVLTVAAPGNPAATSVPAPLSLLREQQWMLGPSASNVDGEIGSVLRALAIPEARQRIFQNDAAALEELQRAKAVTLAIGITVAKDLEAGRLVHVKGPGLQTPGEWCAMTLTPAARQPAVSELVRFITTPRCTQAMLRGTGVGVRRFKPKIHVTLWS
# [2] = target: CutR, LysR-type transcriptional regulator from Mycobacterium sp. strain JC1 (native protein) (Mycobacterium sp. strain JC1); experiment: SEC; Superdex G-75 column, 20 mM Tris-HCl pH 7.5, 500 mM NaCl, 5 mM beta-mercaptoethanol; size standards conalbumin, ovalbumin, carbonic anhydrase, ribonuclease A, aprotinin
stoichiometry N [2],Substance,binding [1]
,ACCCCGAGTTAAGTGATTCCTTAACTCGCTATTGACGCCATCGCGGCGGCAACGGAAACTAGCCACTTCAGCCACGACGTTGTGAGGATGATCACATGCAA (double strand) [IR1 to CRP motif fragment (101 bp)],binds
2,"CutR, LysR-type transcriptional regulator from Mycobacterium sp. strain JC1 (native protein) (natural protein)",
